Results published in patent US20110319338A1, “PEPTIDES THAT BIND EUKARYOTIC TRANSLATION INITIATION FACTOR 4E” (The Board of Regents of the University of Texas System, priority 2008, published 2011).
Square brackets hold non-standard residues; d marks the D form. Ends that are not written are not given here.

Experiments:
[1] = molecular target: T1, binding of eIF4E to eIF4G in SKOV3+GnRH-RI cells (Homo sapiens, UniProt P06730); assay: eIF4E immunoprecipitation / eIF4G Western blot of lysates of peptide-treated cells; format: cell-based; details: 10 micromoles per liter, 24 hours
T1 construct: endogenous in cells; host or cells: SKOV3+GnRH-RI cells
T1 sequence (P06730 2-217 limits assumed): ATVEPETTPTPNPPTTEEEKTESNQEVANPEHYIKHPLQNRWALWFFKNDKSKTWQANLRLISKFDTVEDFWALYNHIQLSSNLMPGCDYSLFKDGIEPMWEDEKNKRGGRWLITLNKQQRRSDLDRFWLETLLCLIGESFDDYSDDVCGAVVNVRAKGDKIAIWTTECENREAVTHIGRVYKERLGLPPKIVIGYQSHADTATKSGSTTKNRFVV
Experimental: FIGS. 8A-8D. Effect of [DLys6] GnRH-4EBP1 peptide in SKOV3 cells stably expressing GnRH-RI. (FIG. 8A) Western blot analysis of GnRH-RI in parental SKOV3 cells and SKOV3 cells transfected with GnRH-RI. In (FIG. 8B), SKOV3+GnRH-RI cells were treated with biotinylated peptides at a final concentration of 10 micromoles per liter or incubated without peptide. At 24 hours after treatment, lysates were prepared from cells. Peptide was pulled-down using streptavidin-agarose. Precipitates and supernatants were analyzed by Western blot using eIF4E antibody. (FIG. 8C) parental SKOV3, SKOV3+GnRH-RI and ES-2 cells were treated with the indicated peptides (10 micromoles per liter) or incubated without peptide. At 24 hours after treatment, lysates were prepared from cells. Immunoprecipitation was performed using eIF4E antibody, and Western blot of precipitates was performed using eIF4G antibody. Western blot of whole cell lysates of treated cells was performed using antibodies to eIF4G, eIF4E and actin. (FIG. 8D) TUNEL-staining of parental SKOV3 and SKOV3+GnRH-RI cells at 3 days following treatment with peptide at a final concentration of 30 micromoles per liter.
Immunoprecipitation (IP) and Western blotting. Biotinylated peptides were incubated with 250 micrograms of cell lysate at a final concentration of 3 micromoles per liter for 6 hours at 4° C. […]

eIF4E = molecular target: T2, eIF4E (Homo sapiens, UniProt P06730); assay: Streptavidin-agarose pull-down of biotinylated peptide from OVCAR-3 cell lysate, Western blot with eIF4E antibody; format: binding; details: biotinylated peptide 3 micromoles per liter, 250 micrograms OVCAR-3 cell lysate
T2 construct: endogenous in cells; host or cells: OVCAR-3 cell lysate
T2 sequence (P06730 whole entry): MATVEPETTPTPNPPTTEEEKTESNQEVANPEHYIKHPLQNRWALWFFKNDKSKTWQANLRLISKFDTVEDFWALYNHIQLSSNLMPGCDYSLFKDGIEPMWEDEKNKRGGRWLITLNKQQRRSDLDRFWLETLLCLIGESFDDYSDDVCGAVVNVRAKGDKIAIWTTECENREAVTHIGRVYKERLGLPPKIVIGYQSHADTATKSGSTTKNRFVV
Experimental: FIGS. 1A-1G. 4EBP peptides bind eIF4E and inhibit binding of eIF4E to eIF4G. (FIG. 1A) Sequences of peptides comprising residues 49 to 68 of 4EBP1 and 4EBP2. (FIG. 1B) Biotinylated peptides (3 micromoles per liter) were incubated with 250 micrograms of OVCAR-3 cell lysate. Peptides were pulled-down using streptavidin-agarose. Precipitates (P) and supernatants (S) were analyzed by Western blot using eIF4E antibody. In (FIG. 1C), immunoprecipitation was performed using eIF4E antibody, and Western blot performed using eIF4G antibody. (FIG. 1D) Sequences of wild-type and mutant 4EBP peptides fused to TAT (mutant residues are highlighted). (FIG. 1E) OVCAR-3 cells were treated with biotinylated peptides (3 micromoles per liter, final concentration) for 16 hours. Internalized peptides were detected by staining fixed cells with Texas Red-conjugated streptavidin. Nuclei were visualized by staining with 4′,6-Diamidino-2-Phenylindole (DAPI). (FIGS. 1F and 1G) OVCAR-3 cell lysates were incubated with peptides as described for FIG. 1B. In (FIG. 1F), immunoprecipitation was performed using streptavidin-agarose and Western blot performed using eIF4E antibody. In (FIG. 1G), immunoprecipitation was performed using eIF4E antibody, and Western blot performed using eIF4G antibody.
FIGS. 3A-3H. Uptake, binding and inhibitory effects of [DLys6]GnRH-4EBP fusion peptides. (FIG. 3A) Sequences of [DLys6]GnRH, and wild-type and mutant 4EBP1 peptides fused to the agonist. (FIG. 3B) Western blot of GnRH-RI levels in OVCAR-3, ES-2, MDA-MB-231, BJ, HUVEC and SKOV3 cells. (FIG. 3C) Detection of biotinylated peptides in OVCAR-3 and SKOV3 by Texas Red-conjugated streptavidin at 16 hours after peptide addition (3 micromoles per liter). In (FIGS. 3D and 3E), biotinylated peptides were incubated with OVCAR-3 cell lysate as described in FIG. 1. In (FIG. 3D), peptide was pulled down using streptavidin-agarose. Precipitates (P) and supernatants (S) were analyzed by Western blot using eIF4E antibody. In (FIG. 3E), immunoprecipitation was performed using eIF4E antibody, and Western blot performed using eIF4G antibody. (FIG. 3F) R-Luc and F-Luc activities were assayed in ES-2-DualLuc cells at 6 hours after addition of the indicated concentrations of peptides, and are expressed relative to the respective luciferase activities in cells incubated without peptide. Shown are results of triplicate assays performed independently two times, and the statistical significance of differences in relative R-Luc and F-Luc activities in cells treated with peptide at a concentration of 10 micromoles per liter (FIG. 3G) Cells of GnRH-RI-positive and -negative lines were treated with the indicated concentrations of peptides. […]

“[DLys6]GnRH: GnRH agonist with a D-amino acid substitution at position 6; GnRH-RI-targeting moiety (QHWSY[dK]LRPG; not fully specified (residue 1, C-terminus); ends and bridges not checked)” was tested, and the “binding of eIF4E to eIF4G in treated cells” value [1] was “not inhibited” and the “binding of peptide to eIF4E” value (eIF4E) was “did not bind”.
